Experimental data as given in the nanobody polyreactivity screen of Harvey et al. (2022).

Test: yeast display, Sf9 membrane polyspecificity reagent, FACS + sequencing; frameworks hold sequencing errors
Method in brief: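 After 36–48 hours of galactose induction, yeast (Saccharomyces cerevisiae BJ5465) displaying a synthetic nanobody library were stained at 4 °C for 1 hour with 10% biotinylated, detergent-solubilized Sf9 membrane reagent. Streptavidin microbeads enriched the stained cells before FACS sorting into low and high (top ~1%) gates on anti-HA and streptavidin fluorescence. Each clone's polyreactivity label reflects its gate of origin.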

Sequence | polyreactivity (PSR sort gate)
QVQLVESGGGLVQAGGSLRLSCAASGRIIANYAMGWYRQAPGKEREVVAGISSGGSTNYADSVKGRFTISRDNAKNPVYLQMNSLKPEDTAVYYCAKDPAYRVSKYDYWGQGTQVTVSS | low polyreactivity
QVQLVESGGGLVQAGGSLRLSCAASGRIIAYNTMGWNRQAHWKERDWVAAISSRGGRTYYADSVKGRFTISRDNAKNTVYLEMNSLKPEDTAVYYCAAKYYRYGDPDRYDYWGQGTQVTVSS | high polyreactivity
QVQLVESGGGLVQAGGSLRLSCAASGRIIAYYAMGWSRQAPGKERELVAAINWNGGSTYYADSVKGRFTISRDNAKNTVYLQMNSLKPEDTAVYYCNAGRTYTALNGDYWGQGTQVTLSS | high polyreactivity
QVQLVESGGGLVQAGGSLRLSCAASGRIIDLNAMGWYRQAPGKERQLVAAISYSGGRTFYADSVKGRFTISRDNAKNTVYLQMNSLKPEDTAVYYCNARYGKPAYQYGMDYWGQGTQVTVSS | low polyreactivity
QVQLVESGGGLVQAGGSLRLSCAASGRIIDYYTMGWDRQAPGKERELVATITIVGITNYADSVKGRFTISRDNAKNTVYLQMNSLKPEDTAVYYCAADRADFFVIRTIDPYDYWGQGTQVTVSS | low polyreactivity
QVQLVESGGGLVQAGGSLRLSCAASGRIIFAYTMGWYRQAPGKERELVAAISSSGSTYYADSVKGRFTISRDNAKNTVYLQMNSLKPEDTAVYYLRVQRRAYRYDYWGQGTQVTVTS | high polyreactivity
QVQLVESGGGLVQAGGSLRLSCAASGRIIGFNAMGWYRQAPGKERELVASIRTTGGSTRYADSVKGRFTISRDNAKNTVYLQMNSLKPEDTAVYYCAARSRLRYLYDYWGQVTQVTVSS | high polyreactivity
QVQLVESGGGLVQAGGSLRLSCAASGRIIGKNAMGWYRQAPGEERELVAAIRYNGGRTYYADSVKGRFTISRDNAKNTVYLQMNSLKPEDTAVYYCATRTYRVDPEFGYWGQGTQVTVSS | high polyreactivity
QVQLVESGGGLVQAGGSLRLSCAASGRIIGLYTMGWYRQAPGKERELVAAINIRGTRTYYADSVKGRFTISRDNAKNTVYLQMNSLKPEDTAVYYCAAASYRSGRYTFDYWGQGTQVTVSS | high polyreactivity
QVQLVESGGGLVQAGGSLRLSCAASGRIIGRYAMGWYRQAPGKERELVAGITIRGGSTYYADSVKGRFTISRDNAKNTVYLQMNSLKPEDTAVYYCAARHGSGFRYYPGHAGGYWGQGTQVTVSS | low polyreactivity
QVQLVESGGGLVQAGGSLRLSCAASGRIIGYNAMGWYRQAPGKERELVASIRYSGGSTYYADSVKGRFTISRDNAMNTVYLQMNSLKPEDTAVYYCATRVTYRRRFDYWGQGTQVTVSS | high polyreactivity
QVQLVESGGGLVQAGGSLRLSCAASGRIIGYYAMGWYRQAPGKERELVAAISRRGGSTYYADSVKGRFTISRDNAKNTVYLQMNSLKPEDTAVYYCATLTLESFSALYYWGQGTQVTVSS | low polyreactivity
QVQLVESGGGLVQAGGSLRLSCAASGRIIIRYAMGWYRQAPGKERELVAGISRRGGSTSYADSVKWRFTISRDNAKNTVYLQMNSLKPEDTAVYYCGADSQYKYDYWGQGTQVTVSS | high polyreactivity
QVQLVESGGGLVQAGGSLRLSCAASGRIIKRYAMGWYRQAPGKERELVAAISASGSSTYYADSVKGRFTISRDNAKNTVYLQMNSLKPEDTAVYYCAAWAYSPSASYDYWGQGTQVTVSS | high polyreactivity
QVQLVESGGGLVQAGGSLRLSCAASGRIINYYAMGWYRPAPGKERELVAGISWSGGSTSYADSVKGRFTISRDNAKNTVYLQMNSLKPEDTAVYYCAAGVFKAFYYWGQGTQVTVSS | low polyreactivity
QVQLVESGGGLVQAGGSLRLSCAASGRIIPKYAMGWYRQAPGKERELVAAISSSGGSTYYADSVKGRFTISRDNAKNTVYLQINSLKPEDTAVYYCNVDKATRYRYPGFDYWGQGTQVTVSS | high polyreactivity
QVQLVESGGGLVQAGGSLRLSCAASGRIIRINAMGWYRQAPGKERELVAAITRGGTTYADSVKGRFTISRDNAKNTVYLQMNSLKPEDTAVYYCNARTGRSPTGFRYWGQGTQVTVSS | high polyreactivity
QVQLVESGGGLVQAGGSLRLSCAASGRIIRWYAMGWYRQAPGKERELVAAISGSGGSTYYADSVKGRFTISRDNAKNTVYLQMNSLKPEDTAVYYCAAAYYRDSDRRYNYWGQGTQVTVSS | high polyreactivity
QVQLVESGGGLVQAGGSLRLSCAASGRIIRYYAMGWYRPAPGKERELVAGITTGGGSTYYADSVKGRFTISRDNAKNTVYLQMNSLKPEDTAVYYCAARYYTTYYWGQGTQVTVSS | high polyreactivity
QVQLVESGGGLVQAGGSLRLSCAASGRIISHNAMGWYRQAPGKERELVAVISNGGSTYYADSVKGRFTISRDNAKNTVYLQMNSLKPEDTAVYYCAARYTPQSGFYYRGQGTQVTVSS | low polyreactivity
QVQLVESGGGLVQAGGSLRLSCAASGRIISRNAMGWYRQAPGKERELVAAISGSGSRTFYADSVKGRFTISRDNAKNTVYLQMNSLKPEDTAVYYCAADRSSYSRFYYWGQGTQVTVSS | high polyreactivity
QVQLVESGGGLVQAGGSLRLSCAASGRIIYGYTMGWYRQAPGKERELVAVISRGGSTNYADSVKGRFSISRDNAKYTVYLQMNSLKPEDTAVYYCAATTKLPRGNYWYYYWGQGTQVTVSS | high polyreactivity
QVQLVESGGGLVQAGGSLRLSCAASGRIIYINAMGWYRQAPGKERELVAAISSDGNTNYADSVKGRFTISRDNAKNTVYLQMNSLKPEDTAVYYCNADVWFYYTFDYWGLGTQVTVSS | low polyreactivity
QVQLVESGGGLVQAGGSLRLSCAASGRIIYRYAMGWYRQAPGKERELVAAIRYSGGRTYYADSVKGRFTISRDNAKNTVYLQMNSLKPEDTAVYYCAADGQWYYARFRGGDYENDYWGQGTQVTVSS | low polyreactivity
QVQLVESGGGLVQAGGSLRLSCAASGRIKYNVMGWYRQAPGKEMELVAAITRSAGRTYYADSVKGRFSISRDNAKNTVYLQMNSLKPEHTGGYYCAAQAERYGYVYWGQGTQVTVSS | low polyreactivity
QVQLVESGGGLVQAGGSLRLSCAASGRILAANAMRWYRQAPGKERELVAAISWSGGRTYYADSVKGRFTISRDNAKNTVYLQMNSLKPEDTAVYYCASVRRYKMDYWGQGTQVTVSS | high polyreactivity
QVQLVESGGGLVQAGGSLRLSCAASGRILARYTMGWYRQAPGKERELVAAISRSSGSTYYADSVKGRFTISRDTAKNTVYLQMNSLKPEDTAVYYCAAYLSYWGQGTQVTVSS | high polyreactivity
QVQLVESGGGLVQAGGSLRLSCAASGRILDYNAMGWYRQAPGKERELVAAITWRGGSTYYADSVKGRFTISRDNAKNTVYLQMNSLKPEDTAVYYCNARWSKTAHTRFGYWGQGTQVTVSS | low polyreactivity
QVQLVESGGGLVQAGGSLRLSCAASGRILFGYAMGWYRQAPGKERELVADITSTGSTNYADSVKGRFTISRDNAKNSVYLQMNSLKPEDTAVYYCNARRESYYQRYRVDYWGQGTQVTVSS | low polyreactivity
QVQLVESGGGLVQAGGSLRLSCAASGRILGAYAMGWYRQAPGKERELVASISSGGRTYYADSVKGRFTISRDNAKNTVYLQMNSLKPEDTAVYYCNRDRNSGFYRRYGYWGQGTQVTVSS | high polyreactivity
